# Measurements from patent publication US20240352121A1, “LAIR-1 AGONISTIC ANTIBODIES AND METHODS OF USE THEREOF” (NEXTCURE, INC., priority 2023, published 2024).
# Tested on: SoC-resistant AML
# Assay: PDX model with BM from a VEN/AZA-resistant patient
# Design: species or system NSG-SGM3 mice
# Conditions: mouse, in vivo
# Procedure: Ex vivo killing of VEN/AZA-treated AML patient leukemic cells (FIG. 7A) or T cells or NK cells (FIG. 7B). Values normalized to vehicle control. Lines represent linear regression of NC525 concentration versus normalized cell killing. […] FIGS. 7D and 7E show in vivo leukemic growth as measured by whole-body luminescence of MV4-11-luciferase cells (FIG. 7D) or survival (FIG. 7E) of CDX mice treated with 10 mg/kg isotype control (gray) or NC525 (red) or 100 mg/kg VEN (pink) or 0.5 mg/kg AZA (blue) or combination therapy (green or yellow, respectively). BLoD, below limit of detection. n=9 mice per group. P values determined by 2-way ANOVA or log-rank (Mantel-Cox) test, respectively. FIGS. 7F and 7G show leukemic growth in the blood (FIG. 7F) and in the spleen and BM (FIG. 7G) at week 8 after transplant of AML PDX mice treated with vehicle (gray), VEN/AZA (blue), NC525 (red), or VEN/AZA plus NC525 (green). n=5-10 mice per group. AML cells in spleen and BM compared from 4-5 mice per group. Data are shown as the mean±SEM. P values determined by 2-way ANOVA or 1-way ANOVA with multiple comparisons.
# Newborn (3-5 day from birth) NSG-SGM3 pups were sub-lethally (200 cGy) irradiated. […] Leukemia progression in recipient mice was measured by flow cytometry by quantifying the percent of human CD33^+ human CD45^+ cells in peripheral blood at weeks 4, 6, and 10 weeks post-transplant.
molecule,measurement,value
"LAIR-1 mAb: humanized agonist anti-LAIR-1 mAb, IgG1 backbone; h11B3 VL-2 (SEQ ID NO: 16), h11B3 VH-3 (SEQ ID NO: 27) (antibody, V domains shown, IgG1 constant regions; Synthetic: h11B3 VH-3; Synthetic: h11B3 VL-2) VH: EVQLVESGGGLVQPGGSLKLSCAASGFTFNTNAMYWVRQAPGKGLEWVGRIRSKSSNYATYYAASVKGRFTISRDDSKNTLYLQMNSLKTEDTAVYYCVRGGSGFFAYWGQGTLVTVSS VL: DIQMTQSPSSLSASLGDRVTITCKASEDIYIRLAWYQQKPGKAPRLLISTATSLETGVPSRFSGSGSGTDYTFTISSLQPEDIATYYCQQYWSTPYTFGGGTRLEIK","AML disease (circulating blast cell burden, AML cells in spleen and BM)",significantly reduced
